Assay results as given in patent US8465945B2, “Method for production and use of mite group 1 proteins” (Merck Patent GmbH, priority 1999, dated 2013).

What was measured:
[1] = test system: IgE from mite-allergic or normal human sera; assay: ELISA, binding of IgE from human sera to coated Der f 1 proteins or mite extracts, detected with FcεR1α-biotin
[2] = test system: IgE from mite-allergic dog sera; assay: ELISA, binding of IgE from dog sera to coated Der f 1 proteins or mite extracts, detected with FcεR1α-biotin
Procedure: Native or recombinant Der f 1 proteins in 100 μl CBC buffer (50 mM sodium carbonate, pH 9.6) were coated onto wells (100 ng per well) of Immulon II microtiter plates (available from Dynex Technologies, Chantilly, Va.) by incubation at 4° C., covered, overnight. Excess fluid was removed and wells were blocked with 200 μl Assay Buffer (4% fetal calf serum (available from Summit Laboratories, Fort Collins, Colo.) in phosphate buffered saline (PBS, recipe in Sambrook, ibid.), plus 0.05% Tween-20 (available from Sigma, St. Louis, Mo.)) for one hour at room temperature. Plates were then washed for 4 cycles on an automatic plate washer (Ultrawash, available from Dynatech Laboratories) using PBS with 0.05% Tween-20. […] Control wells were treated identically except that no serum was added. Plates were then washed as described above. Biotinylated human IgE receptor alpha chain (FcεR1α-biotin) (100 μl of 1.3 ng/ml) prepared as described in U.S. Pat. No. 5,945,294, ibid., was added and incubated for one hour at room temperature. After this incubation, plates were washed as described above. Streptavidin-horseradish peroxidase conjugate (0.5 mg/ml, available from KPL Labs, Gaithersburg, Md.) was added at a 1:5000 dilution in Assay Buffer for one hour at room temperature, after which plates were washed as described above. TMB Peroxidase substrate system, 2 part (available from KPL Labs, #0-76-00), added at 100 μl per well, was used according to the manufacturer's directions. The color reaction was allowed to proceed until good color development was reached (about 10-15 min); then the reaction was stopped with 100 μl per well of 1 M phosphoric acid. Bound IgE was determined by measuring absorbance (Optical Density, or OD) at 450 nm (nanometers) using an ELISA plate reader (such as Spectramax”, Molecular Devices, Sunnyvale, Calif.). Background OD readings in the control wells were subtracted from all numbers. Results are reported in Tables 1, 2 and 3 as OD multiplied by 1000. OD numbers greater than 100 are considered to be positive for a reaction with IgE. P. pastoris-expressed proteins are denoted in the Tables as Pichia expressed proteins.

[3] = test system: IgE from pooled mite-allergic human sera; assay: Monoclonal Capture ELISA (Example 8B, Table 7); assay type: binding
Procedure: Assays were carried out as follows. A microtiter plate as described in Example 5 was coated overnight at 4° C. with 100 ng/well of anti-Der f 1 protein monoclonal antibody 6A8, denoted herein as anti-Der f 1 MAb 6A8, provided by Dr. Martin Chapman. The plate was washed in the manner described above. The following proteins were then added to wells, having been diluted in Assay Buffer in a 2-fold dilution series, from 0.75 to 50 ng/well: Heska native Derf1, P. pastoris-expressed PDerf1303b, and E. coli-expressed PDerf1303c. After incubation for 1 hour at room temperature, plates were washed as described in Example 5. Then 100 μl per well of a 1:1000 dilution in Assay Buffer of biotinylated anti-Der f 1 monoclonal antibody 4C1, also denoted anti-Der f 1 MAb 4C1, provided by Dr. Martin Chapman, was added for 1 hour at room temperature. Plates were washed, streptavidin-HRP conjugate was added, and plates were developed as described in Example 5.
B. The Der f 1 proteins described in Example 8B were reacted as described in Example 6 with a pool of serum samples collected from 16 mite-allergic human patients.

[4] = test system: IgE; settings: cited from earlier work; for IgE reactivity relative to the native protein: literature reports (Chua et al 1992; Shoji et al 1996, 1997)

B1: Chapman native Derf1: Native purified Der f 1 protein, purified in the laboratory of Martin Chapman (protein)
chain: TSACRINSVNVPSELDLRSLRTVTPIRMQGGCGSCWAFSGVAATESAYLAYRNTSLDLSEQELVDCASQHGCHGDTIPRGIEYIQQNGVVEERSYPYVAREQRCRRPNSQHYGISNYCQIYPPDVKQIREALTQTHTAIAVIIGIKDLRAFQHYDGRTIIQHDNGYQPNYHAVNIVGYGSTQGDDYWIVRNSWDTTWGDSGYGYFQAGNNLMMIEQYPYVVIM
OD, bound IgE ([1]; Assay Number 1, serum human 1916): 17 OD multiplied by 1000 | OD, bound IgE ([1]; Assay Number 1, serum human3848): 2336 OD multiplied by 1000 | OD, bound IgE ([1]; Assay Number 1, serum human 3958): 1261 OD multiplied by 1000 | OD, bound IgE ([1]; Assay Number 1, serum human 3960): 1024 OD multiplied by 1000 | OD, bound IgE ([1]; Assay Number 1, serum human 3961): 326 OD multiplied by 1000 | OD, bound IgE ([1]; Assay Number 1, serum human 3987): 1216 OD multiplied by 1000 | OD, bound IgE ([1]; Assay Number 1, serum human 4289): 287 OD multiplied by 1000 | OD, bound IgE ([1]; Assay Number 1, serum human 4467): 615 OD multiplied by 1000 | OD, bound IgE ([1]; Assay Number 1, serum human 5207): 2669 OD multiplied by 1000 | OD, bound IgE ([1]; Assay Number 1, serum human pool): 1531 OD multiplied by 1000 | OD, bound IgE ([1]; Assay Number 2, serum Heska human B): 0 OD multiplied by 1000 | OD, bound IgE ([1]; Assay Number 2, serum Heska human C): 0 OD multiplied by 1000 | OD, bound IgE ([1]; Assay Number 2, serum Heska human D): 0 OD multiplied by 1000 | OD, bound IgE ([1]; Assay Number 2, serum Heska human E): 2 OD multiplied by 1000 | OD, bound IgE ([1]; Assay Number 2, serum Heska human F): 0 OD multiplied by 1000 | OD, bound IgE ([1]; Assay Number 2, serum Heska human G): 0 OD multiplied by 1000 | OD, bound IgE ([1]; Assay Number 2, serum Heska human H): 0 OD multiplied by 1000 | OD, bound IgE ([1]; Assay Number 2, serum Heska human I): 0 OD multiplied by 1000 | OD, bound IgE ([1]; Assay Number 2, serum Heska human J): 0 OD multiplied by 1000 | OD, bound IgE ([1]; Assay Number 2, serum Heska human K): 0 OD multiplied by 1000 | OD, bound IgE ([1]; Assay Number 2, serum Heska human L): 0 OD multiplied by 1000 | OD, bound IgE ([1]; Assay Number 2, serum Heska human M): 0 OD multiplied by 1000 | OD, bound IgE ([1]; Assay Number 2, serum Heska human N): 373 OD multiplied by 1000 | OD, bound IgE ([1]; Assay Number 2, serum Heska human O): 0 OD multiplied by 1000 | OD, bound IgE ([1]; Assay Number 2, serum Heska human P): 0 OD multiplied by 1000 | OD, bound IgE ([1]; Assay Number 2, serum Heska human Q): 0 OD multiplied by 1000 | OD, bound IgE ([1]; Assay Number 2, serum Heska human R): 0 OD multiplied by 1000 | OD, bound IgE ([1]; Assay Number 2, serum human 1916): 8 OD multiplied by 1000 | OD, bound IgE ([1]; Assay Number 2, serum human 3848): 1726 OD multiplied by 1000 | OD, bound IgE ([1]; Assay Number 2, serum human 3958): 822 OD multiplied by 1000 | OD, bound IgE ([1]; Assay Number 2, serum human 3960): 522 OD multiplied by 1000 | OD, bound IgE ([1]; Assay Number 2, serum human 3961): 169 OD multiplied by 1000 | OD, bound IgE ([1]; Assay Number 2, serum human 3987): 846 OD multiplied by 1000 | OD, bound IgE ([1]; Assay Number 2, serum human 4289): 173 OD multiplied by 1000 | OD, bound IgE ([1]; Assay Number 2, serum human 4467): 353 OD multiplied by 1000 | OD, bound IgE ([1]; Assay Number 2, serum human 5207): 2171 OD multiplied by 1000 | OD, bound IgE ([1]; Assay Number 2, serum human pool): 1236 OD multiplied by 1000 | OD, bound IgE ([1]; Table 3, sera 429, PDerf1303b preparation number A166-26, PDerf1223b preparation 1000-7): 152 OD multiplied by 1000 | OD, bound IgE ([1]; Table 3, sera 1916, PDerf1303b preparation number A166-26, PDerf1223b preparation 1000-7): 14 OD multiplied by 1000 | OD, bound IgE ([1]; Table 3, sera 3848, PDerf1303b preparation number A166-26, PDerf1223b preparation 1000-7): 1033 OD multiplied by 1000 | OD, bound IgE ([1]; Table 3, sera 3958, PDerf1303b preparation number A166-26, PDerf1223b preparation 1000-7): 1067 OD multiplied by 1000 | OD, bound IgE ([1]; Table 3, sera 3960, PDerf1303b preparation number A166-26, PDerf1223b preparation 1000-7): 738 OD multiplied by 1000 | OD, bound IgE ([1]; Table 3, sera 3961, PDerf1303b preparation number A166-26, PDerf1223b preparation 1000-7): 221 OD multiplied by 1000 | OD, bound IgE ([1]; Table 3, sera 3987, PDerf1303b preparation number A166-26, PDerf1223b preparation 1000-7): 865 OD multiplied by 1000 | OD, bound IgE ([1]; Table 3, sera 4467, PDerf1303b preparation number A166-26, PDerf1223b preparation 1000-7): 489 OD multiplied by 1000 | OD, bound IgE ([1]; Table 3, sera 5207, PDerf1303b preparation number A166-26, PDerf1223b preparation 1000-7): 1836 OD multiplied by 1000 | OD, bound IgE ([1]; Table 3, sera human pool, PDerf1303b preparation number A166-26, PDerf1223b preparation 1000-7): 1114 OD multiplied by 1000 | OD, bound IgE ([1]; Table 6, pool of sera from 16 mite-allergic human patients, 6.2 ng protein per well): 17 OD | OD, bound IgE ([1]; Table 6, pool of sera from 16 mite-allergic human patients, 12.5 ng protein per well): 116 OD | OD, bound IgE ([1]; Table 6, pool of sera from 16 mite-allergic human patients, 25 ng protein per well): 215 OD | OD, bound IgE ([1]; Table 6, pool of sera from 16 mite-allergic human patients, 50 ng protein per well): 488 OD | OD, bound IgE ([1]; Table 6, pool of sera from 16 mite-allergic human patients, 100 ng protein per well): 581 OD | OD, bound IgE ([1]; Table 6, pool of sera from 16 mite-allergic human patients, 200 ng protein per well): 584 OD | OD, bound IgE ([2]; Assay Number 1, serum dog pool): 341 OD multiplied by 1000 | OD, bound IgE ([2]; Assay Number 1, serum dog-1): 6 OD multiplied by 1000 | OD, bound IgE ([2]; Assay Number 1, serum dog-2): 1408 OD multiplied by 1000 | OD, bound IgE ([2]; Assay Number 1, serum dog-3): 3125 OD multiplied by 1000 | OD, bound IgE ([2]; Assay Number 2, dog sera pool A 146): 220 OD multiplied by 1000 | OD, bound IgE ([2]; Assay Number 2, dog sera pool KS338): 19 OD multiplied by 1000 | OD, Monoclonal Capture ELISA ([3]; 0.39 ng protein per well): 1480 OD | OD, Monoclonal Capture ELISA ([3]; 0.78 ng protein per well): 2186 OD | OD, Monoclonal Capture ELISA ([3]; 1.55 ng protein per well): 2447 OD | OD, Monoclonal Capture ELISA ([3]; 3.1 ng protein per well): 2597 OD | OD, Monoclonal Capture ELISA ([3]; 6.25 ng protein per well): 2620 OD | OD, Monoclonal Capture ELISA ([3]; 12.5 ng protein per well): 2483 OD | OD, Monoclonal Capture ELISA ([3]; 25 ng protein per well): 2249 OD

B2: Der f 1 pro-form: Recombinant Der f 1 pro-form from baculovirus expression system in insect cells (Shoji et al) (protein, listed as Dermatophagoides farinae)
chain: RPASIKTFEEFKKAFNKNYATVEEEEVARKNFLESLKYVEANKGAINHLSDLSLDEFKNRYLMSAEAFEQLKTQFDLNAETSACRINSVNVPSELDLRSLRTVTPIRMQGGCGSCWAFSGVAATESAYLAYRNTSLDLSEQELVDCASQHGCHGDTIPRGIEYIQQNGVVEERSYPYVAREQRCRRPNSQHYGISNYCQIYPPDVKQIREALTQTHTAIAVIIGIKDLRAFQHYDGRTIIQHDNGYQPNYHAVNIVGYGSTQGDDYWIVRNSWDTTWGDSGYGYFQAGNNLMMIEQYPYVVIM
IgE reactivity relative to the native protein [4]: 20%

B3: S. cerevisiae-expressed Der p 1 proenzyme: Recombinant Der p 1 pro-form produced in S. cerevisiae, solubilized and renatured (Chua et al) (protein, UniProt P08176 19-320, looked up)
pro-form: RPSSIKTFEEYKKAFNKSYATFEDEEAARKNFLESVKYVQSNGGAINHLSDLSLDEFKNRFLMSAEAFEHLKTQFDLNAETNACSINGNAPAEIDLRQMRTVTPIRMQGGCGSCWAFSGVAATESAYLAYRNQSLDLAEQELVDCASQHGCHGDTIPRGIEYIQHNGVVQESYYRYVAREQSCRRPNAQRFGISNYCQIYPPNVNKIREALAQTHSAIAVIIGIKDLDAFRHYDGRTIIQRDNGYQPNYHAVNIVGYSNAQGVDYWIVRNSWDTNWGDNGYGYFAANIDLMMIEEYPYVVIL
modifications: pro-form S. cerevisiae-expressed
sera reactive, of 11 sera reactive with the native protein ([4]; Chua et al): 9 | IgE reactivity relative to the native protein [4]: about 80%
